Test results taken from patent US20240084003A1 (SIMCERE ZAIMING PHARMACEUTICAL, published 2024).

T1: monkey CD22 protein (ACROBiosystems, catalog number SI2-R52Ha) (monkey, UniProt F6W485 20-688)
T1 construct: commercial protein; also called monkey CD22-ECD; monkey CD22-ECD-His
T1 sequence: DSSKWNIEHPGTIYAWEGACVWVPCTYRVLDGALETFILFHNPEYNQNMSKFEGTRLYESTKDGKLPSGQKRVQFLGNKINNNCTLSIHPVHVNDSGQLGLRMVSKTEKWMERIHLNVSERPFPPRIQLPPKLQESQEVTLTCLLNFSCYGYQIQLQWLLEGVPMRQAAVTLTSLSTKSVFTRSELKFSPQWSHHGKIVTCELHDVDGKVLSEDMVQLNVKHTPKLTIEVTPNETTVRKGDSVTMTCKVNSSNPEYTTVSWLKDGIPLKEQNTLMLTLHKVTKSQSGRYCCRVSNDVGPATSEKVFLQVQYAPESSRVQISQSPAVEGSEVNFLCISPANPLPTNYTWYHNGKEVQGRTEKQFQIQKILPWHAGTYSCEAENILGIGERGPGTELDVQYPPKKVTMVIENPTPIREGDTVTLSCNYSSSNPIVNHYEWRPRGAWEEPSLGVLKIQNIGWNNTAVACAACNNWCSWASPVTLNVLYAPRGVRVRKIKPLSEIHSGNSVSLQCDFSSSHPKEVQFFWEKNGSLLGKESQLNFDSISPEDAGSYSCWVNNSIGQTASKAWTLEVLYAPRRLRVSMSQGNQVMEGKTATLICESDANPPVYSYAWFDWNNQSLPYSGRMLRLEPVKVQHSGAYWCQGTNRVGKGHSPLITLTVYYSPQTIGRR


Assays:
[1] = target: T2, CD22 on cynomolgus monkey peripheral blood B cells (cynomolgus monkey (Macaca fascicularis)); test: FACS, cynomolgus PBMC, CD20+ B cells, antibody 1 nM
T2 construct: whole, on cells; also called cynomolgus monkey B cells
Method in brief: (§1)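 Readout: % chimeric-antibody-positive cells among CD20+ gated B cells, FACS. Cyno PBMC (Ficoll) in PBS/1% BSA; test Ab plus BV605 anti-CD20, 1 h RT; APC anti-hIgG Fc secondary, 30 min RT dark; washes between steps.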

[2] = target: T1, monkey CD22 protein (ACROBiosystems, …); test: ELISA, coated monkey CD22 protein, antibody 0.1 nM
Method in brief: (§2)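 Direct ELISA: chimeric antibody binding to CD22 coated at 2 μg/mL, with a 37° C, 2 h antibody step and HRP/TMB detection.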

[3] = target: T1, monkey CD22 protein (ACROBiosystems, …); test: ELISA, coated monkey CD22 protein, antibody 0.01 nM
Method in brief: as §2

[4] = target: T1, monkey CD22 protein (ACROBiosystems, …); test: ELISA, coated monkey CD22 protein, antibody 0.00001 nM
Method in brief: as §2

[5] = target: T1, monkey CD22 protein (ACROBiosystems, …); test: ELISA, coated monkey CD22 protein, antibody 100 nM
Method in brief: as §2

[6] = target: T1, monkey CD22 protein (ACROBiosystems, …); test: ELISA, coated monkey CD22 protein, antibody 10 nM
Method in brief: as §2

[7] = target: T2, CD22 on cynomolgus monkey peripheral …; test: FACS, cynomolgus PBMC, CD20+ B cells, antibody 100 nM
Method in brief: as §1

[8] = target: T1, monkey CD22 protein (ACROBiosystems, …); test: ELISA, coated monkey CD22 protein, antibody 0.0001 nM
Method in brief: as §2

[9] = target: T1, monkey CD22 protein (ACROBiosystems, …); test: ELISA, coated monkey CD22 protein, antibody 0.001 nM
Method in brief: as §2

[10] = target: T2, CD22 on cynomolgus monkey peripheral …; test: FACS, cynomolgus PBMC, CD20+ B cells, antibody 10 nM
Method in brief: as §1

Row | Binder | Proportion of chimeric antibody positive cells to B cells (%) [1] [%] | OD450 [2] [OD450] | OD450 [3] [OD450] | OD450 [4] [OD450] | OD450 [5] [OD450] | OD450 [6] [OD450] | Proportion of chimeric antibody positive cells to B cells (%) [7] [%] | OD450 [8] [OD450] | OD450 [9] [OD450] | Proportion of chimeric antibody positive cells to B cells (%) [10] [%]
1 | F1.257.3 (antibody, human IgG1, kappa, V domains shown, human-murine chimeric IgG1 kappa; VL name legible) VH: QVQLQQSGPELARPGASVKLSCKASGYTFTSYGISWVKQRTGQDLEWIGEIYPKLGTTYYNEKFKDKATLTTDRSSSTAYMALRSLTSEDSAVYFCACPHYYATRGGDYWGQGTTLTVSS VL: EIVLTQSPATLSVTPGDSVTFSCRASQSISNHLHWYQQKSHESPRLLIRYASQSISGIPSRFSGSGSGTDFTLSLSSVETEDFGVYFCQQSHSWPYTFGGGTKLEIAR | 17 | 0.06 | 0.05 | 0.06 | 0.18 | 0.07 | 34 | 0.06 | 0.05 | 20
2 | F1.62.10 (antibody, human IgG1, kappa, V domains shown, human-murine chimeric IgG1 kappa) VH: QVQLQQSGPELVKPGASVKISCKASGYEFSSIWMNWVKQRPGEGLEWIGRIFPGDGEINYNEKFKGKATLTADRSSTTAYMQLSSLTSEDSAVYFCAGWRIYYGTYGAMDYWGQGTSVTVSS VL: DIQMTQITSSLSASLGDRVTISCRASQDIGNYLNWYQQKPDGTVKLLIYYTSRLHSGVPSRFSGSGSRTDYSLTISNLQQEDIATYFCQQGNTLPWTFGGGTKLEIKR | 17 | 0.07 | 0.05 | 0.06 | 0.36 | 0.18 | 24 | 0.06 | 0.05 | 19
3 | F1.17.1 (antibody, human IgG1, kappa, V domains shown, human-murine chimeric IgG1 kappa) VH: QVQLKESGPGLVAPSQSLSITCTVSGFSLSRYTVHWVRQPPGKGLEWLGMIWGGGSTDYNSALKSRLSISKDNSKSQVFLKMNSLQTDDTAMYYCARPHDFDAGGFAYWGQGTLVTVSA VL: QIVLTQSPAILSTSPGEKVTMTCSASSRVNYMYWYQQKPGSSPRLLIYDTSNLASGVPVRFSGSGSGTSYSLTISRMEAEDAATYYCQQWTSYPLTFGAGTKLELKR | 60 | 1.99 | 1.75 | 0.07 | 1.91 | 2.16 | 68 | 0.13 | 0.51 | 62
4 | F1.245.2 (antibody, human IgG1, kappa, V domains shown, human-murine chimeric IgG1 kappa) VH: EVQLQQSGAELVKPGASVKLSCTGSGFNIKDYYIHWVKQRTEQGLEWMGRIDPEDGETEYAPKFQDEATITSDTSSNTAYLQLSSLTYEDTAVYYCAREAAGYFYRGSSYGYFDVWGTGTTVTVSS VL: DFQMTQTTSFLSASLGDRVTISCSASQDISNYLNWYQQKPDGTVKLLIYYTSSLHSGVPSRFSGSGSGTDYSLTISNLEPEDIATYYCQQYSMLPYTFGGGTKLEMER | 16 | 0.06 | 0.06 | 0.06 | 0.08 | 0.06 | 17 | 0.06 | 0.06 | 17
5 | F1.192.1 (antibody, human IgG1, kappa, V domains shown, human-murine chimeric IgG1 kappa) VH: AVQLQQSGVELVRPGASVKLSCTGSDFNIKEDYIHWVKQRPEQGLEWIGWIDPENGDTEYASKFQGKATITADTSSNTAYLQLSSLTSEDTAVYYCATYGSLDYWGQGTTLTVSS VL: DIKMTQSPSSMYAFLGERVTITCKASQGINSFLTWFQQKPGKSPKTLIYRANRLVDGVPSRFSGSGSGQDYSLTISSLEYEDVGIYYCLQYDEFPRTFGGGTKLEIKR | 22 | 0.53 | 0.19 | 0.07 | 1.21 | 0.84 | 38 | 0.07 | 0.07 | 30
6 | F1.216.2 (antibody, human IgG1, kappa, V domains shown, human-murine chimeric IgG1 kappa) VH: QVQLQQSGPEVVRPGASVKISCKASGYAFSSSWMNWMKQRPGKALEWIGRIYPGDGDTNYSGEFKVKATLTADKSSSTAYMQLSSLTSEDSAVYFCAREGSYYSNPWYFDYWGQGTTLTVSS VL: DVLVTQTPLSLPVSLGDQASISCRSSQSIVQSNGDTYLEWYLQKPGQSPKLLIYKVSNRFSGVPDRFSGSGSGTDFTLKISRVEAEDLGVYYCFQGSHVPFTFGSGTKLEIKR | 22 | 2.24 | 2.04 | 0.09 | 1.94 | 2.15 | 34 | 0.21 | 0.91 | 25

Second part, the binder after the results:

Row | Proportion of chimeric antibody positive cells to B cells (%) [1] [%] | OD450 [2] [OD450] | OD450 [3] [OD450] | OD450 [4] [OD450] | OD450 [5] [OD450] | OD450 [6] [OD450] | Proportion of chimeric antibody positive cells to B cells (%) [7] [%] | OD450 [8] [OD450] | OD450 [9] [OD450] | Proportion of chimeric antibody positive cells to B cells (%) [10] [%] | Binder
7 | 16 | 0.06 | 0.05 | 0.06 | 0.09 | 0.07 | 18 | 0.06 | 0.05 | 16 | F1.60.9 (antibody, human IgG1, kappa, V domains shown, human-murine chimeric IgG1 kappa) VH: QVQLKESGPGLVAPSQSLSITCTVSGLSLNNYGVSWVRQPPGKGLEWLGVIWGDGSTNYHSALISRLSISKDNSKSQVFLKLNSLHTDDTATYYCAINWGDYWGQGTTLIVSS VL: DIKMTQSPSSMNASLGERVTITCKASQDINSYLSWFQQKPGKSPKILIYRANRLIDGVPSRFSGSGSGQDYSLTISSLEYEDMGIYYCLQYGVFPLTFGAGTKLELKR
8 | 30 | 2.78 | 2.47 | 0.09 | 3.21 | 2.93 | 34 | 0.18 | 0.82 | 31 | F1.172.13 (antibody, human IgG1, kappa, V domains shown, human-murine chimeric IgG1 kappa) VH: QVTLKESGPGILQSSQTLSLTCSFSGFSLSTSGMGVSWIRQPSGKGLEWLAHIYWDDDKRYNPSLKSRLTISKDTSRNQVFLKITSVDTADTATYYCARAPPPNWDEYYFDYWGQGTTLTVSS VL: DIQMTQSPASLSASVGETVTITCRASGNIHNSLAWYQQKQGKSPQLLVHNAKTLADGVPSRFSGSGSGTQYSLKINSLQPEDFGSYYCQHFWSTPPFGGGTKLEIKR
9 | 21 | 0.62 | 0.19 | 0.06 | 1.25 | 1.23 | 56 | 0.06 | 0.08 | 37 | F1.200.11 (antibody, human IgG1, kappa, V domains shown, human-murine chimeric IgG1 kappa) VH: QNQLVQSGPELKKPGETVKISCKASGYTFTTAGMQWVQKMPGKGFKWIGWINTLSGEPKYAEDFKGRFAFSLETSATTAYLQISNLKNEDTATYFCARAYYSNLYWYFDVWGTGTTVTVSS VL: DIVMTQSQKFMSTTVGDRVTITCKASQNVVTAVAWYQQKPGQSPKVLIYSASNRYSGVPDRFTGSGSGTDFTLTISNMHSEDLANYFCHQYSSYPFTFGSGTKLEIKR
